± gives the standard deviation of the averaged measurements.
Assay: total protein half-life in vivo (active degradation + dilution); higher = more stable protein
[1] = E. coli NCM3722 delta-clpP delta-lon delta-hslV, growth: N-lim chemostat, doubling time 6 h
[2] = E. coli NCM3722 delta-clpP, growth: N-lim chemostat, doubling time 6 h
[3] = E. coli NCM3722 delta-hslV, growth: N-lim chemostat, doubling time 6 h
[4] = E. coli NCM3722 delta-lon, growth: N-lim chemostat, doubling time 6 h
[5] = E. coli NCM3722 delta-smpB, growth: N-lim chemostat, doubling time 6 h
[6] = wild type E. coli NCM3722, growth: C-lim chemostat, doubling time 3 h
[7] = wild type E. coli NCM3722, growth: C-lim chemostat, doubling time 6 h
[8] = wild type E. coli NCM3722, growth: C-lim chemostat, doubling time 12 h
[9] = wild type E. coli NCM3722, growth: N-lim chemostat, doubling time 6 h
[10] = wild type E. coli NCM3722, growth: N-lim chemostat, doubling time 12 h
[11] = wild type E. coli NCM3722, growth: P-lim chemostat, doubling time 6 h
[12] = wild type E. coli NCM3722, growth: P-lim chemostat, doubling time 12 h

## MKFIGKLLLYILIALLVAIAGLYFLLQTRWGAEHISAWVSENSDYHLAFGAMDHRFSAPSHIVLENVTFGRDGQPATLVAKSVDIALSSRQLTEPRHVDTILLENGTLNLTDQTAPLPFKADRLQLRDMAFNSPNSEWKLSAQRVNGGVVPWSPKAGKVLGTKAQIQFSAGSLSLNDVPATNVLIEGSIDNDRVTLTNLGADIARGTLTGNAQRNADGSWQVENLRMADIRLQSEKSLTDFFAPLRSVPSLQIGRLEVIDARLQGPDWAVTDLDLSLRNMTFSKDDWQTQEGKLSMNASEFIYGSLHLFDPIINTEFSPQGVALRQFTSRWEGGMVRTSGNWLRDGKTLILDDAAIAGLEYTLPKNWQQLWMETTPGWLNSLQLKRFSASRNLIIDIDPDFPWQLTALDGYGANLTLVTDHKWGVWSGSANLNAAAATFNRVDVRRPSLALTANSSTVNISELSAFTEKGILEATASVSQTPQRQTHISLNGRGVPVNILQQWGWPELPLTGDGNIQLTASGDIQANVPLKPTVSGQLHAVNAAKQQVTQTMNAGIVSSGEVTSTEPVR
[1]
  total protein half-life in vivo: 6.81 ± 0.67 h
[2]
  total protein half-life in vivo: 6.85 ± 0.84 h
[3]
  total protein half-life in vivo: 6.19 ± 0.067 h
[4]
  total protein half-life in vivo: 6.3 ± 0.072 h
[5]
  total protein half-life in vivo: 6.28 ± 0.42 h
[6]
  total protein half-life in vivo: 3.2 ± 0.15 h
[7]
  total protein half-life in vivo: 5.9 ± 0.12 h
[8]
  total protein half-life in vivo: 11.4 ± 1 h
[9]
  total protein half-life in vivo: 6.16 ± 0.12 h
[10]
  total protein half-life in vivo: 12.6 ± 0.84 h
[11]
  total protein half-life in vivo: 6.26 ± 0.23 h
[12]
  total protein half-life in vivo: 12 ± 0.2 h

## MKATSEELAIFVSVVESGSFSRAAEQLGQANSAVSRAVKKLEMKLGVSLLNRTTRQLSLTEEGERYFRRVQSILQEMAAAESEIMETRNTPRGLLRIDAATPVVLHFLMPLIKPFRERYPEVTLSLVSSETIINLIERKVDVAIRAGTLTDSSLRARPLFNSYRKIIASPDYISRYGKPETIDDLKQHICLGFTEPASLNTWPIARSDGQLHEVKYGLSSNSGETLKQLCLSGNGIACLSDYMIDKEIARGELVELMADKVLPVEMPFSAVYYSDRAVSTRIRAFIDFLSEHVKTAPGGAVREA
[1]
  total protein half-life in vivo: 6.4 ± 0.2 h
[3]
  total protein half-life in vivo: 5.5 ± 1.2 h
[4]
  total protein half-life in vivo: 5.97 ± 0.94 h
[5]
  total protein half-life in vivo: 5.67 ± 0.07 h
[6]
  total protein half-life in vivo: 3.33 ± 0.26 h
[7]
  total protein half-life in vivo: 5.1 ± 0.3 h
[8]
  total protein half-life in vivo: 12.7 ± 0.46 h
[9]
  total protein half-life in vivo: 6.02 ± 0.12 h
[10]
  total protein half-life in vivo: 11.3 ± 0.32 h
[11]
  total protein half-life in vivo: 5.75 ± 0.71 h
[12]
  total protein half-life in vivo: 12 ± 1.9 h

## MAKLTLQEQLLKAGLVTSKKAAKVERTAKKSRVQAREARAAVEENKKAQLERDKQLSEQQKQAALAKEYKAQVKQLIEMNRITIANGDIGFNFTDGNLIKKIFVDKLTQAQLINGRLAIARLLVDNNSEGEYAIIPASVADKIAQRDASSIVLHSALSAEEQDEDDPYADFKVPDDLMW
[1]
  total protein half-life in vivo: 5.344 ± 0.0096 h
[2]
  total protein half-life in vivo: 4.88 ± 0.16 h
[3]
  total protein half-life in vivo: 2.22 ± 0.1 h
[4]
  total protein half-life in vivo: 2.88 h
[5]
  total protein half-life in vivo: 2.37 h
[6]
  total protein half-life in vivo: 2.24 ± 0.012 h
[7]
  total protein half-life in vivo: 3.23 ± 0.14 h
[8]
  total protein half-life in vivo: 4.09 ± 0.13 h
[9]
  total protein half-life in vivo: 1.95 ± 0.37 h
[10]
  total protein half-life in vivo: 2.45 ± 0.67 h
[11]
  total protein half-life in vivo: 2.17 ± 0.44 h
[12]
  total protein half-life in vivo: 4.41 ± 0.084 h

## MTQYSSLLRGLAAGSAFLFLFAPTAFAAEQTVEAPSVDARAWILMDYASGKVLAEGNADEKLDPASLTKIMTSYVVGQALKADKIKLTDMVTVGKDAWATGNPALRGSSVMFLKPGDQVSVADLNKGVIIQSGNDACIALADYVAGSQESFIGLMNGYAKKLGLTNTTFQTVHGLDAPGQFSTARDMALLGKALIHDVPEEYAIHKEKEFTFNKIRQPNRNRLLWSSNLNVDGMKTGTTAGAGYNLVASATQGDMRLISVVLGAKTDRIRFNESEKLLTWGFRFFETVTPIKPDATFVTQRVWFGDKSEVNLGAGEAGSVTIPRGQLKNLKASYTLTEPQLTAPLKKGQVVGTIDFQLNGKSIEQRPLIVMENVEEGGFFGRVWDFVMMKFHQWFGSWFS
[1]
  total protein half-life in vivo: 6.35 ± 0.48 h
[2]
  total protein half-life in vivo: 6.56 ± 0.37 h
[3]
  total protein half-life in vivo: 6.22 ± 0.69 h
[4]
  total protein half-life in vivo: 6.18 ± 0.099 h
[5]
  total protein half-life in vivo: 6.46 ± 0.26 h
[6]
  total protein half-life in vivo: 3.19 ± 0.077 h
[7]
  total protein half-life in vivo: 6.19 ± 1.3 h
[8]
  total protein half-life in vivo: 12.4 ± 0.45 h
[9]
  total protein half-life in vivo: 5.989 ± 0.057 h
[10]
  total protein half-life in vivo: 14.9 ± 1.2 h
[11]
  total protein half-life in vivo: 5.962 ± 0.051 h
[12]
  total protein half-life in vivo: 13.2 ± 0.29 h

## MTTPTFDTIEAQASYGIGLQVGQQLSESGLEGLLPEALVAGIADALEGKHPAVPVDVVHRALREIHERADAVRRQRFQAMAAEGVKYLEENAKKEGVNSTESGLQFRVINQGEGAIPARTDRVRVHYTGKLIDGTVFDSSVARGEPAEFPVNGVIPGWIEALTLMPVGSKWELTIPQELAYGERGAGASIPPFSTLVFEVELLEIL [P0A9L3]
[1]
  total protein half-life in vivo: 4.93 ± 0.29 h
[2]
  total protein half-life in vivo: 4.54 ± 0.58 h
[3]
  total protein half-life in vivo: 3.72 ± 0.16 h
[4]
  total protein half-life in vivo: 5 ± 0.44 h
[5]
  total protein half-life in vivo: 3.45 ± 0.19 h
[6]
  total protein half-life in vivo: 3.06 ± 0.2 h
[7]
  total protein half-life in vivo: 5.67 ± 0.37 h
[8]
  total protein half-life in vivo: 10.4 ± 0.65 h
[9]
  total protein half-life in vivo: 3.59 ± 0.1 h
[10]
  total protein half-life in vivo: 5.3 ± 0.15 h
[11]
  total protein half-life in vivo: 5.591 ± 0.04 h
[12]
  total protein half-life in vivo: 11 ± 0.86 h

## MDVRQSIHSAHAKTLDTQGLRNEFLVEKVFVADEYTMVYSHIDRIIVGGIMPITKTVSVGGEVGKQLGVSYFLERRELGVINIGGAGTITVDGQCYEIGHRDALYVGKGAKEVVFASIDTGTPAKFYYNCAPAHTTYPTKKVTPDEVSPVTLGDNLTSNRRTINKYFVPDVLETCQLSMGLTELAPGNLWNTMPCHTHERRMEVYFYFNMDDDACVFHMMGQPQETRHIVMHNEQAVISPSWSIHSGVGTKAYTFIWGMVGENQVFDDMDHVAVKDLR
[1]
  total protein half-life in vivo: 5.44 ± 1.1 h
[2]
  total protein half-life in vivo: 3.55 h
[3]
  total protein half-life in vivo: 3.6 ± 0.5 h
[4]
  total protein half-life in vivo: 3.28 ± 0.7 h
[5]
  total protein half-life in vivo: 3.71 ± 0.51 h
[6]
  total protein half-life in vivo: 3.43 ± 0.61 h
[7]
  total protein half-life in vivo: 6.02 ± 0.23 h
[8]
  total protein half-life in vivo: 10.2 ± 0.68 h
[9]
  total protein half-life in vivo: 4.18 h
[10]
  total protein half-life in vivo: 5.64 ± 0.57 h
[11]
  total protein half-life in vivo: 5.56 h
[12]
  total protein half-life in vivo: 11.6 ± 0.6 h

Reference: the supplement of paper PMC11246515
